In patent US20220315908A1, “NOVEL GARDNERELLA ENDOLYSINS AND USES THEREOF” (priority 2019, published 2022):

Columns and labels:
[1] = tested on: all tested Gardnerella strains; test: MIC and MBC microbroth dilution, stated over all tested strains; assay type: cell-based; settings: first round: […]10^7 CFU/ml, 48 h anaerobic (FIG. 14)
Experimental: One of the main deficiencies in the treatment of BV is the high rate of recurrence in many women, which leads to repeated administration of antibiotics and concomitant destabilization of the microbiome and other side effects. The minimal inhibitory concentration (MIC) and minimal bactericidal concentration (MBC) on Gardnerella cells of the strains also used for the endolysin activity assays were then measured using the method described in Reference Example 6 and 7. […] Essentially, Gardnerella suspensions at 2.5×10^7 CFU/ml were incubated with the concentration of antibiotics as indicated and incubated for 48 h at 37° C. under anaerobic conditions. […] OD(610) was measured at the beginning and the end of the experiment. At the end of the experiment, 2 ul of each reaction mix was spotted on agar to determine the MBC.
The conditions under which MIC and MBC were measured are more rigorous than the standard.
Example 7—Activity assays of a representative (H2B10) of domain swapped endolysins on the growth in suspension of different Gardnerella strains. […] The conditions under which MBC was measured are more rigorous than the standard. […] In general, it is known, that antibiotics only insufficiently eradicate the Gardnerella biofilm, a hallmark of BV, which is one suspected reason for the reported very high recurrence rate of BV. Despite leaving residual viable biofilm, antibiotics wipe parts of the beneficial organisms of the vaginal microbiome which then opens an ecological niche for other pathogens, e.g. fungi.
Bacteria were plated from cryo stock on BD Choc Agar plates (Gardnerella) and incubated at 37° C. for 48 h under anaerobic conditions. Colonies were scraped from the plate, resuspended in Hardy Broth or NYC-III-HS-pH 5.0, and the suspension adjusted to OD (610 or 620 nm as indicated) 0.05. It has to be noted that two Tecan Microplate readers, having respectively a 610 nm or 620 nm filter, have been used interchangeably in the experiments. Although it doesn't make any difference for the experiments, the exact wavelength used is specified in each example. Antibiotics were prepared as 20× stocks for each of the required final concentrations. […] OD (610-620 as indicated) at the start of the reaction was measured, then the plate was incubated at 37° C. for 48 h under anaerobic conditions. After that, the OD (610-620 as indicated) was measured again for MIC determination, where MIC was defined as the lowest concentration of antibiotic where the OD (610-620 as indicated) was not above the level measured at the beginning of the experiment. […] After incubation, cell growth on each spot was evaluated, and the MBC defined as the lowest concentration of antibiotics where no bacteria grew on the plate.

[2] = tested on: G. vaginalis sensu stricto strain Gv_9; test: Quantitative reduction in viable CFU assay in bacterial suspension; assay type: cell-based, Gardnerella vaginalis sensu stricto; settings: for median surviving cells after incubation with imidazole: 5×10^7 CFU/ml start, 5 hours 37° C. anaerobic
Experimental: The lysis activity on the four main species of Gardnerella of 91 constructs (natural and domain-swapped endolysins) was quantitatively assessed using the method described in Reference Example 2. […]
(§1) The results are shown in FIGS. 8A to 8D together with Tables 5A to 5C. In FIGS. 8A to 8D, the logarithmic Y axis depicts the count of surviving cells. The dotted line indicates the limit of detection (LOD) given by plating of 2 ul of the reaction mix (500 CFU/ml). Each combination of the natural 10 H-domains and the natural 9 B-regions was assessed, including the natural endolysins (H1B1, H2B2, H3B3, etc.), plus H6B6. […] The activity of each construct was measured on each of the 4 main Gardnerella species G. vaginalis sensu stricto, G. leopoldii, G. piotii, and G. swidsinkii. All conditions have been measured in triplicate. The survival after 5 hours incubation at pH 5.0 under anaerobic conditions with endolysins vs. buffer was measured by quantitative plating. The values indicate the log 10 of the ratio of surviving CFU for treated vs. untreated cells. The average of the triplicate measurements is used. In tables 5A and 5B, high negative log 10 values, e.g. −6.7, −5.5, −4.8 etc. are associated with high enzymatic activity, while log 10 values closer to zero or even positive log 10 values are associated with low or no enzymatic activity. […] Inversely, a reduction value of −3.7 means a 10^3.7-fold (=5012-fold) reduction of viable CFU in treated sample vs. untreated control.
(§2) Gardnerella cells were recovered from cryo stock by plating on Chocolate Agar plates (Beckton Dickinson) and incubating for 48 h at 37° C. under anaerobic conditions. For Lactobacilli, BD Schaedler/5% sheep blood agar plates were used instead. Colonies were scraped from the plate, resuspended in Hardy Broth or NYC-III-HS-5.0 at the pH as indicated, and the suspension adjusted to OD (610 or 620 nm as indicated) 0.1. It has to be noted that two Tecan Microplate readers, having respectively a 610 nm or 620 nm filter, have been used interchangeably in the experiments. Although it doesn't make any difference for the experiments, the exact wavelength used is specified in each example. If not stated otherwise, 90 μl cell suspension was mixed with 10 μl endolysin solution, for the different species/endolysin combinations, in 384-well plates. OD(610-620 nm as indicated) was measured at the beginning of the reaction and at the end, either as two measurement points or as a continuous kinetic in a Tecan F200 Microplate reader. The reactions were incubated for 5 hours (or otherwise the time indicated) at 37° C. under anaerobic, micro-aerophilic or aerobic conditions as indicated. Anaerobic conditions intend that oxygen was fully depleted from the container in which the bacteria are incubated (Sigma-Aldrich anaerobic jar or sealable lunch box) with an anaerobic sachet, and the lack of oxygen was confirmed with an anaerobic indicator inside the container. Where micro-aerophilic conditions are indicated, the candle-in-a-jar method was used (tea candle lit in an appropriate sealable container, which reduces oxygen levels until the flame dies out). Then each well was diluted in 5 steps (10^−1 to 10^−5) using 96-U-well bottom plates, and 2 μl of each dilution of each reaction mix are plated on BD Chocolate agar plates or BD Schaedler/5% sheep blood agar plates for Gardnerella and Lactobacilli, respectively, for detecting and quantifying surviving CFU. Detection plates were incubated at 37° C. for 48 hours under anaerobic conditions.

[3] = tested on: G. leopoldii strain Gv_11; test: as above; assay type: cell-based, Gardnerella leopoldii; settings: 5 hours, pH 5.0, anaerobic, 10 ul endolysin (0.2 mg/ml where possible) + 90 ul 5e7 CFU/ml, average of triplicate
Experimental: (§3) The lysis activity on the four main species of Gardnerella of 91 constructs (natural and domain-swapped endolysins) was quantitatively assessed using the method described in Reference Example 2. Briefly, 90 ul 5e7 CFU/ml of the indicated strain were incubated for 5 hours at pH 5.0 under anaerobic conditions with 10 ul endolysin (concentration adjusted to 0.2 mg/ml where possible, see Table 4).
as §1, §2

[4] = tested on: G. piotii strain Gv_17; test: as above; assay type: cell-based, Gardnerella piotii; settings: 5 hours, pH 5.0, anaerobic, 10 ul endolysin (0.2 mg/ml where possible) + 90 ul 5e7 CFU/ml, average of triplicate
Experimental: as §3, §1, §2

[5] = tested on: four Gardnerella strains (Gv_9, Gv_11, Gv_17, Gv_23); test: CFU reduction averaged across the four Gardnerella strains, with activity ranks; assay type: cell-based
Experimental: as §3, §1
as §2, with “out).” for “out). Then each well was diluted in 5 steps (10^−1 to 10^−5) using 96-U-well bottom plates, and 2 μl of each dilution of each reaction mix are plated on BD Chocolate agar plates or BD Schaedler/5% sheep blood agar plates for Gardnerella and Lactobacilli, respectively, for detecting and quantifying surviving CFU. Detection plates were incubated at 37° C. for 48 hours under anaerobic conditions.”

[6] = tested on: G. swidsinskii strain Gv_23; test: Quantitative reduction in viable CFU assay in bacterial suspension; assay type: cell-based, Gardnerella swidsinskii; settings: 5 hours, pH 5.0, anaerobic, 10 ul endolysin (0.2 mg/ml where possible) + 90 ul 5e7 CFU/ml, average of triplicate
Experimental: as §3, §1, §2

CCC[C@@H]1C[C@@H](C(=O)N[C@@H]([C@H]2O[C@H](SC)[C@H](O)[C@@H](O)[C@H]2O)[C@H](C)Cl)N(C)C1 [Clindamycin]
MIC over all Gardnerella strains [1]: > 8 µg/mL

c1c[nH]cn1 [imidazole]
median surviving cells after incubation with imidazole ([2]; pH 6.0): 1×10^6 CFU/ml
median surviving cells after incubation with imidazole ([2]; pH 7.0): 3×10^4 CFU/ml

B1: H6B6: natural Gardnerella prophage endolysin from strain 1400E, truncated at the C-terminus (protein)
chain: MSKKGIDVSVWQGDIDFNAVKASGVEFVIIRAGYGIGCKDKWFEQNYRKAKTCGLDVGAYWYSYANSGFEAAEEAQSCVNMLSGKSFEYPVYFDLEEKSQLNRGRAFCDSLITSFCSKLESCGYYAGFYTSLSTANNLVSAHVRNRYALWIAQWNTHCDYQGSYGLWQYSSSGSVPGVAGRVDMDYAYKNYPSIIKNAGLNGCKNGGSNQAARTSSIDDVAREVINGAWGNGNERKQRLTQAGYDYASVAK
modifications: EL6_strain_1400E_frameshift
notes: natural Gardnerella prophage endolysin from strain 1400E, truncated at the C-terminus
log 10 of the ratio of surviving CFU for treated vs. untreated cells [3]: 0.2 log 10
log 10 of the ratio of surviving CFU for treated vs. untreated cells [4]: −0.2 log 10
killing activity against Gardnerella, in words ([5]; across the Gardnerella strains tested): complete inactivity
average of the log 10 activities of each construct across the four Gardnerella strains ([5]; pH 5.0, 5 hours, anaerobic): 0.0 log 10
activity rank of all endolysins ([5]; rank 1-91, based on the data of Table 5B): 86
log 10 of the ratio of surviving CFU for treated vs. untreated cells ([2]; Gv_9, 5 hours, pH 5.0, anaerobic, 10 ul endolysin (0.2 mg/ml where possible) + 90 ul 5e7 CFU/ml, average of triplicate): 0.1 log 10
log 10 of the ratio of surviving CFU for treated vs. untreated cells [6]: −0.1 log 10
